Source: patent publication US6090631

Legend:
[1] = target: GST-syntaxin 1A fusion protein, full-length (2-289) (rat); assay: GST-syntaxin 1A pull-down (5 µM GST-syntaxin, 10 µM fusion protein), immunoblot
[2] = target: GST-syntaxin 1A fusion protein, full-length (2-289) (rat); assay: competition on GST-syntaxin beads against 125I-ω-CTx-GVIA-labeled N-type channels
[3] = target: GST alone (Schistosoma japonicum (Blood fluke)) [GST: P08515]; assay: 125I-ω-CTx-GVIA-labeled channels on GST beads, direct counting
[4] = target: GST fusion protein including full-length SNAP-25 (Mus musculus (Mouse)) (UniProt P60879); assay: titration on GST-SNAP-25 beads, immunoblot
[5] = target: GST-syntaxin 1A fusion protein, full-length (2-289) (rat); assay: titration on GST-syntaxin beads, immunoblot
[6] = target: GST-syntaxin 1A fusion protein, full-length (2-289) (rat); assay: GST-syntaxin pull-down at equal concentrations, immunoblot

Substance: His-LII-III (718-859)
- pixel value (phosphorimaging of bound fusion protein, FIG. 14) [1]: 45 pixel value

Substance: His-LII-III (773-859)
- percent reduction in the specific binding of labeled N-type channels to GST-syntaxin [2]: 78%

Substance: His-LII-III (832-963)
- pixel value (phosphorimaging of bound fusion protein, FIG. 14) [1]: 751 pixel value

Substance: His-LII-III (1027-1145)
- percent reduction in the specific binding of labeled N-type channels to GST-syntaxin [2]: 10%

Substance: [125I]-ω-CTx-GVIA-labeled N-type calcium channels, partially purified from rat brain (from UniProt Q02294)
- cpm of labeled channels bound [3]: 549 cpm

Substance: hBI 722-1036
- half-maximal saturation [4]: 1 to 2 µM
- half-maximal saturation [5]: 2 µM

Substance: rbB 718-963
- fold greater affinity than hBI 722-1036 [5]: 10 fold
- half-maximal saturation [5]: 0.2 µM
- fold higher affinity than rbB 718-859 [6]: 40 fold
- pixel value (phosphorimaging of bound fusion protein, FIG. 14) [1]: 1650 pixel value
